The labels stand for the following.
B2: MatPΔ18C (printed MatPA18C; 1-132) (domain or fragment, E. coli, UniProt P0A8N0 1-132, looked up)
chain: MKYQQLENLESGWKWKYLVKKHREGELITRYIEASAAQEAVDVLLSLENEPVLVNGWIDKHMNPELVNRMKQTIRARRKRHFNAEHQHTRKKSIDLEFIVWQRLAGLAQRRGKTLSETIVQLIEDAENKEKY

Data set [1] deals with B2. Description: native MS.
The data set “native MS” concerns the molecule itself. Description: native MS.
Data set [2] has as its target T1, MukB long hinge (LH, 568-863) (E. coli, UniProt P22523 568-863).
T1 sequence (looked up): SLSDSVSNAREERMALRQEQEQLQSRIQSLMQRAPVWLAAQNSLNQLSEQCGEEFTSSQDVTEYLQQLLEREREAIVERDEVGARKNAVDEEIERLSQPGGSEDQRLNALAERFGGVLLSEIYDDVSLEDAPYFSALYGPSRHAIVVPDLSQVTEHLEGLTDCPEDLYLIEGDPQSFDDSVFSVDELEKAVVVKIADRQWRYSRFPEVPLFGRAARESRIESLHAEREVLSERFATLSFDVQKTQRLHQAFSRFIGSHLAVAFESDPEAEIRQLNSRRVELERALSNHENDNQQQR
In words: ITC. (Isothermal titration calorimetry measures the heat released or taken up as one component is titrated into another.)

Data set [3] has as its target T1, MukB long hinge (LH, 568-863). In words: native MS.
The target in data set [4] is T2, MukB, full length, wild type (E. coli, UniProt P22523 1-1486).
T2 sequence (looked up): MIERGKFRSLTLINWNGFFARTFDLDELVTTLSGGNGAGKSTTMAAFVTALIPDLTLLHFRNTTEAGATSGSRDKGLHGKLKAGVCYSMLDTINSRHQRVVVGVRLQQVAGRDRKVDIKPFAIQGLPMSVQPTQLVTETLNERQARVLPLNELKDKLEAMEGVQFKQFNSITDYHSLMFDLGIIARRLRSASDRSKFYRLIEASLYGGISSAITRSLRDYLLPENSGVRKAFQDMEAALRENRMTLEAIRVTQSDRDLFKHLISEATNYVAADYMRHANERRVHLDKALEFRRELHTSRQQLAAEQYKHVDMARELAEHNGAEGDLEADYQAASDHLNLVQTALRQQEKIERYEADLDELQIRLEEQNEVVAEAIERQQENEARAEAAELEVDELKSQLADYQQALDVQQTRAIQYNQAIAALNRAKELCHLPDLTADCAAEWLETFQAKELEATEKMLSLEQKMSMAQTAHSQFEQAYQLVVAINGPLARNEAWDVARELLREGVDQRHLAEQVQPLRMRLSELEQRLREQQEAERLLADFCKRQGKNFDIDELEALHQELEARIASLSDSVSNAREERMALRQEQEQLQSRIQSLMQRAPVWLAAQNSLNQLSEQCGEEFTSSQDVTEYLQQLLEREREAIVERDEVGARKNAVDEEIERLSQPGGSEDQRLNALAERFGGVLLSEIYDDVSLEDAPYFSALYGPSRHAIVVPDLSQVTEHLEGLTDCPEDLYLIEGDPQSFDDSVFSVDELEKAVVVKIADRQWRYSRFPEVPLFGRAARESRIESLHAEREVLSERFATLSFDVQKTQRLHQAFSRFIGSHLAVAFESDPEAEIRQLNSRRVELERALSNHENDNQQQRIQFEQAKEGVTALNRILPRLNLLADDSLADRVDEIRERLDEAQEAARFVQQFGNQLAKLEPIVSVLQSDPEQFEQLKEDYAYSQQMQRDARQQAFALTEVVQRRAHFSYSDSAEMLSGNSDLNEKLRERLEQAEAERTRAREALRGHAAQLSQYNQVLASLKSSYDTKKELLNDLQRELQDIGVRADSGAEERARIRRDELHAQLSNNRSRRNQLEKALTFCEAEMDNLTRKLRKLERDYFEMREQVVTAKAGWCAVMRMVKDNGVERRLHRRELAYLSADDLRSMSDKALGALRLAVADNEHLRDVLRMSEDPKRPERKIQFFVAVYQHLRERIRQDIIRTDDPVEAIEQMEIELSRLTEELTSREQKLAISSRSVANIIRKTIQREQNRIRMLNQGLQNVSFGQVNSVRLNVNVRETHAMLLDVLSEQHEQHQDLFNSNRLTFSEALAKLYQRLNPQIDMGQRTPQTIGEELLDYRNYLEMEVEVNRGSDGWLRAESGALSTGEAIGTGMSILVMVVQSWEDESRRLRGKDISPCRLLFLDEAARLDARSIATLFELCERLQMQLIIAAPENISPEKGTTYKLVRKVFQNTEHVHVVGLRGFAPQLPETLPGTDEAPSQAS
In words: fluorescence correlation spectroscopy.

For data set [5], the target named is T3, MukB^KKK (full length MukB D697K D745K E753K) (E. coli, UniProt P22523 1-1486, D697K | D745K | E753K).
T3 sequence (looked up): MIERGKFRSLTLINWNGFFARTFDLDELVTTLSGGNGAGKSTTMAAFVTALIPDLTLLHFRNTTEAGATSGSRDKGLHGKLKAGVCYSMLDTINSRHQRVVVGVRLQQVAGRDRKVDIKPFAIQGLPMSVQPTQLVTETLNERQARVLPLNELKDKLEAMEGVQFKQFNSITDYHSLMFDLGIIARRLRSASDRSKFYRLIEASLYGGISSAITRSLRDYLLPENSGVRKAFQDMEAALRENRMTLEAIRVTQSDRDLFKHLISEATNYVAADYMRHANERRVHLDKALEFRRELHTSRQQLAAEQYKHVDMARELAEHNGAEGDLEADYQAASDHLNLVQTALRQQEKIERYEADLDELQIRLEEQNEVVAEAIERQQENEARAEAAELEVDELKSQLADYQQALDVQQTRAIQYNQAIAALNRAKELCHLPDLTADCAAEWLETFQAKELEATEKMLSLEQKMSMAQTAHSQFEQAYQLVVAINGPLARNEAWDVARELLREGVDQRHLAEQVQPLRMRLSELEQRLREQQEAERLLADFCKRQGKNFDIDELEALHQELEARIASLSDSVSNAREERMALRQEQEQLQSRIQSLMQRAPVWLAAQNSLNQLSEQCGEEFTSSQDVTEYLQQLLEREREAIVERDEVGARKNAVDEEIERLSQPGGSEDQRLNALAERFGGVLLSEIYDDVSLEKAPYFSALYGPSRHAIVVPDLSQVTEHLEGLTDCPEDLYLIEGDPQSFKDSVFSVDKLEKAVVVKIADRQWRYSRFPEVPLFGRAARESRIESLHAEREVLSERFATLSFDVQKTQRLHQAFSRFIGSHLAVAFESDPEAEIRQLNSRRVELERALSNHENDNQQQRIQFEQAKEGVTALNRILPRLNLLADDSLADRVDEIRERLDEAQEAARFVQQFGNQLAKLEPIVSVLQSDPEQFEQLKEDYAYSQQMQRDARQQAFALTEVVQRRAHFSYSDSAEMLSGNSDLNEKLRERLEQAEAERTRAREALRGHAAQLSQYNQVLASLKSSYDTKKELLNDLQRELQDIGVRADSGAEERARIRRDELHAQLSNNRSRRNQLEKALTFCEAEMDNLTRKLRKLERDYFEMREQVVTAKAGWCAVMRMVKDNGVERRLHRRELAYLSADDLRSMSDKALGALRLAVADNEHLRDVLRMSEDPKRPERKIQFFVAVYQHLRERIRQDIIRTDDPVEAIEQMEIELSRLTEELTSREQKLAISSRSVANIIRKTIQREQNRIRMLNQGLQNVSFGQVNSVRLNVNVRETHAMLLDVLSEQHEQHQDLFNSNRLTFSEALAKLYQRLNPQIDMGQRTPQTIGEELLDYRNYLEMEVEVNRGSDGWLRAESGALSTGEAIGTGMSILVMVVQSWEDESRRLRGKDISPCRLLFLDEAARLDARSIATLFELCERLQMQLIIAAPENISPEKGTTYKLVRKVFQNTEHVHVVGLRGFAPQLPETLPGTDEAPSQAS
In words: fluorescence correlation spectroscopy.

B1: MukB short hinge (SH, 667-779) (domain or fragment, E. coli, UniProt P22523 667-779, looked up)
chain: GGSEDQRLNALAERFGGVLLSEIYDDVSLEDAPYFSALYGPSRHAIVVPDLSQVTEHLEGLTDCPEDLYLIEGDPQSFDDSVFSVDELEKAVVVKIADRQWRYSRFPEVPLFG
Regarding B1, the binding result in data set [1] is recorded as “binds”. The stoichiometry N (as a rule, a count of units in the complex or per binding partner) in “native MS” was 2.
As to B2, in data set [2], the Kd – broadly, the constant that tells how readily two partners part at equilibrium – is 590 nM; the dH is -16.8 kcal/mol; the “stoichiometry N” value stood at 0.96. Besides, the “stoichiometry N” value in data set [3] is 1 MatP dimer per LH dimer.

B3: MatP-Cys-His labelled with Cy3B (MatP-Cy3B) (domain or fragment, E. coli, UniProt P0A8N0 1-132, looked up)
chain: MKYQQLENLESGWKWKYLVKKHREGELITRYIEASAAQEAVDVLLSLENEPVLVNGWIDKHMNPELVNRMKQTIRARRKRHFNAEHQHTRKKSIDLEFIVWQRLAGLAQRRGKTLSETIVQLIEDAENKEKY
modifications: Cy3B maleimide on a single cysteine engineered into the linker between MatP and its 6xHis-tag
As for B3, the Kd is around 250 nM in data set [4] and around 1600 nM in data set [5].

The values above are taken from publication doi:10.1101/2021.03.03.433707 (bioRxiv, 2021).
